Data on 2 molecules can be found in paper PMC9606263, “Polerovirus N-terminal readthrough domain structures reveal molecular strategies for mitigating virus transmission by aphids” (Nature Communications, 2022).

Series [1] deals with N-terminal portion of the readthrough domain of turnip yellows virus (TuYV NRTD; residues 224-459) (turnip yellows virus). The series is described as follows: SEC-MALS; loaded at 4 mg/mL on Superdex 200 10/300 Increase; 20 mM HEPES pH 7.5, 150 mM KCl, 1 mM DTT; 0.5 ml/min.
Series [2] concerns the molecule itself. The series is described as above.

In series [1], “N-terminal portion of the readthrough domain of turnip yellows virus (TuYV NRTD; residues 224-459) (from UniProt P09516 224-459) (domain or fragment)” displayed a stoichiometry N of 2.

B1: N-terminal portion of the potato leafroll virus readthrough domain (PLRV NRTD; residues 230-458), native (domain or fragment)
chain: HERFIAYVGIPMLTIQARENDDQIILGSLGSQRMKYIEDENQNYTKFSSEYYSQSSMQAVPMYYFNVPKGQWSVDISCEGYQPTSSTSDPNRGRSDGMIAYSNADSDYWNVGEADGVKISKLRNDNTYRQGHPELEINSCHFREGQLLERDATISFHVEAPTDGRFFLVGPAIQKTAKYNYTISYGDWTDRDMELGLITVVLDEHLEGTGSANRVRRPPREGHTYMASP
notes: Readthrough protein (RTP, CP-RTD fusion) of potato leafroll virus, N-terminal portion of the readthrough domain, residues 230-458 of the complete RTP fusion; 6xHis-NusA removed with HRV3C protease; also called WT PLRV ^NRTD; source: E. coli BL21(DE3), purified (nickel column, HiTrap Q, SEC); not shown: 6xHis, N-terminal, cleaved; NusA, N-terminal, cleaved
B1: the “stoichiometry N” value in series [2] was found to be 2.
